US20090286721A1 (published 2009)

T1: P-selectin on thrombin-activated human platelets (human, UniProt P16109 42-830)
T1 construct: whole, on cells
T1 sequence (looked up): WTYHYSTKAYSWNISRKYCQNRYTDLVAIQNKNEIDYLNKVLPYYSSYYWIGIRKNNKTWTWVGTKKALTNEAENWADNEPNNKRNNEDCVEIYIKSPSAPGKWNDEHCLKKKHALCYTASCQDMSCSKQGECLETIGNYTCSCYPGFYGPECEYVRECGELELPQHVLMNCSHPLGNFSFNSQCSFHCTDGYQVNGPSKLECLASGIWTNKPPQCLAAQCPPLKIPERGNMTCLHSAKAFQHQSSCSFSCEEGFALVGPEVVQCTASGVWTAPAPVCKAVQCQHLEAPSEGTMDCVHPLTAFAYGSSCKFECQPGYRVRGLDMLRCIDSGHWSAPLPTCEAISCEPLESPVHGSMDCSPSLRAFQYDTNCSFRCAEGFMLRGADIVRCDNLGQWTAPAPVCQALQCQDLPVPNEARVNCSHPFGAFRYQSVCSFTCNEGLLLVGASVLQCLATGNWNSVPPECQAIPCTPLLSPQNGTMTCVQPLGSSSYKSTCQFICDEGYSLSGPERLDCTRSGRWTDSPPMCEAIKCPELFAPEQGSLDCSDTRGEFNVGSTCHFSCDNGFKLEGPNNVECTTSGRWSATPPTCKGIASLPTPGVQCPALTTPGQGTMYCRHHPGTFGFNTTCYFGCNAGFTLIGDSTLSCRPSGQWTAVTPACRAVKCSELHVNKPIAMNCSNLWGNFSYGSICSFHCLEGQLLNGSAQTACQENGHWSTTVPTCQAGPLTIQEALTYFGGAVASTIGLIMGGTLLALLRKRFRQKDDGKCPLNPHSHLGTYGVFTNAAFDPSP

T2: recombinant human P-selectin (R&D Systems) (human, UniProt P16109 42-771)
T2 construct: extracellular domain; also called recombinant soluble P-selectin; recombinant P-selectin
T2 sequence (looked up): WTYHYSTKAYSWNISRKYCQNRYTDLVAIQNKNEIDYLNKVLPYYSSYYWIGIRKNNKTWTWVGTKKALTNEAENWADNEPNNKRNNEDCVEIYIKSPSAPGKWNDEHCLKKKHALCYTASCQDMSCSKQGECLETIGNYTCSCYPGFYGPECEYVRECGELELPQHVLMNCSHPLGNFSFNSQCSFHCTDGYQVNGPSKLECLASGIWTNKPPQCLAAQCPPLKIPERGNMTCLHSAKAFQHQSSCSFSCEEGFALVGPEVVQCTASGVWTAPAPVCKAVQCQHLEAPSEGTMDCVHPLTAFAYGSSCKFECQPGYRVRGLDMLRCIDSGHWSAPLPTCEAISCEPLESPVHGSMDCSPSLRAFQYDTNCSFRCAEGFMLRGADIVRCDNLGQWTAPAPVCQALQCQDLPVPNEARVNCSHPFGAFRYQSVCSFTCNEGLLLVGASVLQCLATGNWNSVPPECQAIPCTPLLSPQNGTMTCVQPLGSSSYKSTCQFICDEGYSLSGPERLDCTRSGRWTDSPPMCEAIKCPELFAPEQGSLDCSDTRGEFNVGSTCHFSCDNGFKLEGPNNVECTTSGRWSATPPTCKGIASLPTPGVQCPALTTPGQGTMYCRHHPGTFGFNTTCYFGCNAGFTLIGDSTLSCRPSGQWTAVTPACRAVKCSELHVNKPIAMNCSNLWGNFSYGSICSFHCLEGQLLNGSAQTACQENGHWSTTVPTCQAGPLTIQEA

B1: SZ51, murine anti-P-selectin monoclonal antibody (antibody, V domains shown)
VH: QVQLLESGPELKKPGETVKISCKASGYTFTNYGMNWVKQAPGKGLKWMGWINTYTGEPIYADDFKGRFAFSLETSASTAHLQINSLKNEDMATYFCARGRGGNAMDYWGQGTSVTVSS
VL: ELQMTQSPSSLSASVGDRVTISCSASQDISNYLNWYQQKPDGPVKLLIYYTTSNLHSGVPSRFSGSGSGTDYSLTISNLEPEDIATYYCQQYNKVPWTFGGGTKLEIKR
notes: Variable region DNA in GenBank gi:4099282 (heavy) and gi:4099284 (light); also called parental monoclonal antibody SZ51; anti-P-selectin mouse monoclonal antibody
B2: HuSZ51, chimeric mouse-human anti-P-selectin monoclonal antibody (antibody, human IgG1, V domains shown)
VH: QVQLLESGPELKKPGETVKISCKASGYTFTNYGMNWVKQAPGKGLKWMGWINTYTGEPIYADDFKGRFAFSLETSASTAHLQINSLKNEDMATYFCARGRGGNAMDYWGQGTSVTVSS
VL: ELQMTQSPSSLSASVGDRVTISCSASQDISNYLNWYQQKPDGPVKLLIYYTTSNLHSGVPSRFSGSGSGTDYSLTISNLEPEDIATYYCQQYNKVPWTFGGGTKLEIKR

Key:
[1] = target: T1, P-selectin on thrombin-activated human …; test: ELISA on plate-coated thrombin-activated human platelets
Protocol: The ability of purified HuSZ51-DSPAalpha1 to bind specifically to human or dog thrombin-activated platelets in vitro was investigated by ELISA. 96-Well plates were coated with a 100 μl solution containing 1×10⁶ thrombin-activated human or dog platelets per well and incubated overnight at 4° C. The coated plates were washed once with washing solution (PBS, pH 7.4 plus 0.05% Tween-20), and then incubated with 200 μl blocking solution (5% milk prepared in PBS) per well at 37° C. for 2 hours. The blocked plates were washed 3 times with washing solution, and then incubated with 100 μl washing solution containing various amounts of HuSZ51-DSPAalpha1, SZ51, or human IgG1 for 1 hour at 37° C. The plates were washed 3 times with washing solution, and then incubated with peroxidase-conjugated protein L (Pierce) for 1 hour at 37° C. The plates were washed 4 times with washing solution, and then incubated with 100 μl of TMB/E substrate (ZYMED) for 5 minutes at room temperature. The perioxidase reactions were stopped by the addition of 100 μl 1 N HCl, and the plates were read for absorbance at 450 nm within 5 minutes.

[2] = target: T2, recombinant human P-selectin (R&D …); test: recombinant soluble P-selectin (0-40 ng) after SDS-PAGE on nitrocellulose, detection with HRP goat anti-human Fc
Protocol: 1. Binding of HuSZ51-DSPAalpha1 to P-selectin on a nitrocellulose membrane. The indicated amounts of recombinant soluble P-selectin (R&D systems), 0, 5, 10, 20, or 40 ng, along with 10 ng of human IgG1, were separated on SDS-PAGE gels and then transferred onto nitrocellulose membranes. One membrane was incubated with HuSZ51, and the second was incubated with HuSZ51-DSPAalpha1. After washing, bound HuSZ51 or HuSZ51-DSPAalpha1 was detected by HRP-conjugated goat anti-human Fc. The intensity of human IgG1 lane, which is also detected by HRP-conjugated goat anti-human Fc was used as a normalization control.

Row | Binder | binding result [1] | binding result [2]
1 | B1 | binds | –
2 | B2 | – | binds
